Patent US20220119477A1 (published 2022)

B1: TCR of Patient 2, alpha 1 and beta 1 (TCR, V domains shown)
Valpha: AQSVTQLDSQVPVFEEAPVELRCNYSSSVSVYLFWYVQYPNQGLQLLLKYLSGSTLVESINGFEAEFNKSQTSFHLRKPSVHISDTAEYFCAVTLLSIEPSAGGYQKVTFGIGTKLQVIP
Vbeta: DTGVSQNPRHKITKRGQNVTFRCDPISEHNRLYWYRQTLGQGPEFLTYFQNEAQLEKSRLLSDRFSAERPKGSFSTLEIQRTEQGDSAMYLCASSLEGRAMPRDSHQETQYFGPGTRLLVL
B2: TCR of Patient 2, alpha 2 and beta 1 (TCR, V domains shown)
Valpha: GENVEQHPSTLSVQEGDSAVIKCTYSDSASNYFPWYKQELGKRPQLIIDIRSNVGEKKDQRIAVTLNKTAKHFSLHITETQPEDSAVYFCAATSRDDMRFGAGTRLTVKP
Vbeta: DTGVSQNPRHKITKRGQNVTFRCDPISEHNRLYWYRQTLGQGPEFLTYFQNEAQLEKSRLLSDRFSAERPKGSFSTLEIQRTEQGDSAMYLCASSLEGRAMPRDSHQETQYFGPGTRLLVL
B3: TCR of Patient 2, alpha 1 and beta 2 (TCR, V domains shown)
Valpha: AQSVTQLDSQVPVFEEAPVELRCNYSSSVSVYLFWYVQYPNQGLQLLLKYLSGSTLVESINGFEAEFNKSQTSFHLRKPSVHISDTAEYFCAVTLLSIEPSAGGYQKVTFGIGTKLQVIP
Vbeta: DAMVIQNPRYQVTQFGKPVTLSCSQTLNHNVMYWYQQKSSQAPKLLFHYYDKDFNNEADTPDNFQSRRPNTSFCFLDIRSPGLGDAAMYLCATSWGLNEQYFGPGTRLTVT
B4: TCR of Patient 3, alpha 1 and beta (TCR, V domains shown)
Valpha: AQKVTQAQTEISVVEKEDVTLDCVYETRDTTYYLFWYKQPPSGELVFLIRRNSFDEQNEISGRYSWNFQKSTSSFNFTITASQVVDSAVYFCALPDKVIFGPGTSLSVIP
Vbeta: DSGVTQTPKHLITATGQRVTLRCSPRSGDLSVYWYQQSLDQGLQFLIQYYNGEERAKGNILERFSAQQFPDLHSELNLSSLELGDSALYFCASSVSAGSTGELFFGEGSRLTVL
B5: TCR of Patient 3, alpha 2 and beta (TCR, V domains shown)
Valpha: GQQLNQSPQSMFIQEGEDVSMNCTSSSIFNTWLWYKQEPGEGPVLLIALYKAGELTSNGRLTAQFGITRKDSFLNISASIPSDVGIYFCAGLYATNKLIFGTGTLLAVQP
Vbeta: DSGVTQTPKHLITATGQRVTLRCSPRSGDLSVYWYQQSLDQGLQFLIQYYNGEERAKGNILERFSAQQFPDLHSELNLSSLELGDSALYFCASSVSAGSTGELFFGEGSRLTVL
B6: TCR of Patient 1, alpha 1 and beta (growing colony) (TCR, V domains shown)
Valpha: AQSVAQPEDQVNVAEGNPLTVKCTYSVSGNPYLFWYVQYPNRGLQFLLKYITGDNLVKGSYGFEAEFNKSQTSFHLKKPSALVSDSALYFCAVRDGGATNKLIFGTGTLLAVQP
Vbeta: EAQVTQNPRYLITVTGKKLTVTCSQNMNHEYMSWYRQDPGLGLRQIYYSMNVEVTDKGDVPEGYKVSRKEKRNFPLILESPSPNQTSLYFCASSTLGGELFFGEGSRLTVL
B7: TCR of Patient 2, alpha 2 and beta 2 (TCR, V domains shown)
Valpha: GENVEQHPSTLSVQEGDSAVIKCTYSDSASNYFPWYKQELGKRPQLIIDIRSNVGEKKDQRIAVTLNKTAKHFSLHITETQPEDSAVYFCAATSRDDMRFGAGTRLTVKP
Vbeta: DAMVIQNPRYQVTQFGKPVTLSCSQTLNHNVMYWYQQKSSQAPKLLFHYYDKDFNNEADTPDNFQSRRPNTSFCFLDIRSPGLGDAAMYLCATSWGLNEQYFGPGTRLTVT

Target: T1, WT1 peptide on HLA-A*02:01 (human)
T1 peptide: VLDFAPPGA
Experiment: multimer staining

Binding result, recognises:
B1, B2, B3, B4, B5, B6, B7
